{"source": "patent US20060183119A1", "about": "“Method for determining predisposition to a physiological reaction in a patient” (UNIVERSITE LAVAL, priority 2002, published 2006)", "key": {"[1]": {"molecular_target": "T1, human UGT1A9*2 (Homo sapiens, UniProt O60656, C3Y)", "T1 sequence (O60656 26-530)": "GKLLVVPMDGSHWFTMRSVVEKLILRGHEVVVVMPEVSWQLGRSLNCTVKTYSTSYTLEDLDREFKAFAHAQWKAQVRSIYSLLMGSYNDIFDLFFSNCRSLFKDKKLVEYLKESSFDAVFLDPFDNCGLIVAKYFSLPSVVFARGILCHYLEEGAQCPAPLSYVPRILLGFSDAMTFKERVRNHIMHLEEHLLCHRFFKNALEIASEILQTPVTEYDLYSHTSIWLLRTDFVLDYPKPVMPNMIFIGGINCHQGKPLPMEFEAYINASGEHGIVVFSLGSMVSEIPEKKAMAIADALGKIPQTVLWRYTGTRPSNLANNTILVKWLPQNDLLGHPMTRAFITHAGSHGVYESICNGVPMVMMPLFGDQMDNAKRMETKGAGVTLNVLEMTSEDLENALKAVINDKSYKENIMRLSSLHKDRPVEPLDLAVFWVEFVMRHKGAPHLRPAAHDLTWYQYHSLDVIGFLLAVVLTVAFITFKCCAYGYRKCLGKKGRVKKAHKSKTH", "test": "Glucuronidation by microsomes of HEK-293 cells stably expressing UGT1A9*2", "conditions": "5 μM and 200 μM of flavopiridol", "procedure": "(§1) Microsomal fractions from HEK-293 cells stably expressing human UGT1A9*1, UGT1A9*2 and UGT1A9*3 were used in enzymatic assays. Reactions (100 μl volume) contained 50 mM Tris-HCl, pH 7.3, 10 mM MgCl2, 100 μg/mL phosphatidylcholine, 1 mM UDP-glucuronic acid, 40 to 60 μg of membrane protein. […] Human liver microsome were incubated in the same condition for control. Reaction was stopped by the addition of 200 μL MeOH+1% HCl 2N, followed by centrifugation at 14000 rpm for 10 minutes. Supernatant was filtered through a 0.22 μm filter and 100 μL of water was added. For SN-38 and SN-38-glucuronide detection, 10 μL samples were injected on a liquid chromatographic system coupled to a fluorescence detector. Time-course experiments were realized to determine the linearity of the glucuronidation reaction.\n(§2) A liquid chromatographic method was developed to quantify SN-38 glucuronidation of UGT cell line-derived microsomes and human liver microsomes. Samples were analyzed using high performance liquid chromatography (Alliance 2695, Waters, Milford, Mass.). […] At a constant flow rate (0.7 ml/min), a linear gradient from 20 to 65% B was run over 3 min, held 0.8 min and a second gradient until 95% of B was run over 2 min and then re-equilibrated to 20% B over 2 min. The effluent from the HPLC system (Alliance 2695) was connected directly to a fluorescence detector (Waters, Milford, Mass.) using an excitation wavelength of […] and an emission of 460 nm. […] Determination of the glucuronidation rates obtained with other substrates was performed as currently known in the art.\n(§3) Microsomal fractions from HEK293 (40 to 60 μg) were added to a reaction mixture (100 μL) containing 50 mM Tris-HCl, pH 7.3, 10 mM MgCl2, 100 μg/mL phosphatidylcholine and 2 mM UDP-glucuronic acid. […] Commercially available human liver microsomes (Human Cell Culture Center Inc., Laurel, Md.) were incubated in the same conditions for all experiments. Time-course experiments were performed to determine the linearity of the glucuronidation reaction. For the determination of Vmax and Km. HEK293 cells stably expressing UGT1A9 enzymes were incubated in the presence of various concentrations of SN-38 ranging from 0.1 to 200 μM and incubated for 30 min as described above whereas UGT1A7 membranes preparations were incubated for 3 hours. […] Reactions with SN-38 were stopped by the addition of 200 μL MeOH+1% HCl 2N, followed by centrifugation at 14000×g for 10 minutes. The supernatants were filtered through a 0.22 μm membrane and 100 μL of water was added to the filtrate. For the detection of SN-38 and its glucuronide (SN-38G), 10 μL samples were injected in a liquid chromatographic system (HPLC) coupled to fluorescence detector as described below.\n(§4) A HPLC method was developed to quantify the rates of SN-38 glucuronidation from the various microsomal fractions under study. The HPLC system used was an Alliance 2695 (Waters, Milford, Mass.) equipped with a 50×3.2 mm Colombus C18 column (Phenomenex, Torrance, Calif.). […] Then a second gradient ranging from 65% to 95% solvent B was generated during the following 2 min. Finally, the column was re-equilibrated to 20% solvent B for 2 min. The column was connected to a fluorescence detector model 474 (Waters, Milford, Mass.) and the molecules were excited at a wavelength of 370 nm and an emission of 425 nm."}, "[2]": {"molecular_target": "T2, human UGT1A9*3 (Homo sapiens, UniProt O60656, M33T)", "T2 sequence (O60656 26-530 M33T)": "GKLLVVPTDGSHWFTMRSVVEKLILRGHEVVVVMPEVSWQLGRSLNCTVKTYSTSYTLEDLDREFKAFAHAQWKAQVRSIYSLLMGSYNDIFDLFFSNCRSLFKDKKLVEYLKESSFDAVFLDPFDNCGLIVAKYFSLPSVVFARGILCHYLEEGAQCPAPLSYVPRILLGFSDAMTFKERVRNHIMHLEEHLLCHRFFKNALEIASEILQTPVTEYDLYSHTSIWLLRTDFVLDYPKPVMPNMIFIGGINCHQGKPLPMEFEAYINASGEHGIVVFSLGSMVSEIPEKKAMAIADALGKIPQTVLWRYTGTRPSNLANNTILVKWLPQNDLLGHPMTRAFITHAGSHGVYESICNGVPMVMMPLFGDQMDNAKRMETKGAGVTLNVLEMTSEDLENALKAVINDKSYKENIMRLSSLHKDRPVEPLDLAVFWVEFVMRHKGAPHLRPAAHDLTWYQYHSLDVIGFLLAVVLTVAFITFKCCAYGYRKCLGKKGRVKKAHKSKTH", "test": "Glucuronidation by microsomes of HEK-293 cells stably expressing UGT1A9*3", "procedure": "as §1, §2, §3, §4"}, "[3]": {"tested_on": "COc1c(C)c2c(c(O)c1C/C=C(\\C)CCC(=O)O)C(=O)OC2", "test": "cells, lysate or membranes named", "conditions": "other: MPA glucuronidation; pH 7.3; 37.0 °C"}, "[4]": {"substrate": "COc1c(C)c2c(c(O)c1C/C=C(\\C)CCC(=O)O)C(=O)OC2", "test": "cells, lysate or membranes named", "conditions": "other: MPA glucuronidation; pH 7.3; 37.0 °C", "remark": "listed apart in the source"}}}
{"molecule": "CN1CC[C@H](c2c(O)cc(O)c3c(=O)cc(-c4ccccc4Cl)oc23)[C@H](O)C1", "note": "[Flavopiridol, flavopiridol]", "values": [{"measurement": "formation of flavopiridol-G compared to the UGT1A9*1 allele", "setting": "[1]", "result": "not statistically different"}, {"measurement": "formation of flavopiridol-G compared to the UGT1A9*1 allele", "setting": "[2]; 5 μM and 200 μM of flavopiridol", "result": "not statistically different"}]}
{"molecule": "COc1c(C)c2c(c(O)c1C/C=C(\\C)CCC(=O)O)C(=O)OC2", "note": "[MPA, mycophenolic acid]", "values": [{"measurement": "effect of codon 33 variation on affinity of the protein for the substrate (in words)", "setting": "[2]; versus UGT1A9*1", "result": "dramatically reduced"}]}
{"molecule": "human UGT1A9*2 (Homo sapiens; C3Y)", "values": [{"measurement": "Km", "setting": "[3]", "result": 303, "unit": "µM"}, {"measurement": "Vmax", "setting": "[3]", "result": 0.0084, "unit": "µmol/min/mg"}]}
{"molecule": "human UGT1A9*1 (Homo sapiens) (protein) GKLLVVPMDGSHWFTMRSVVEKLILRGHEVVVVMPEVSWQLGRSLNCTVKTYSTSYTLEDLDREFKAFAHAQWKAQVRSIYSLLMGSYNDIFDLFFSNCRSLFKDKKLVEYLKESSFDAVFLDPFDNCGLIVAKYFSLPSVVFARGILCHYLEEGAQCPAPLSYVPRILLGFSDAMTFKERVRNHIMHLEEHLLCHRFFKNALEIASEILQTPVTEYDLYSHTSIWLLRTDFVLDYPKPVMPNMIFIGGINCHQGKPLPMEFEAYINASGEHGIVVFSLGSMVSEIPEKKAMAIADALGKIPQTVLWRYTGTRPSNLANNTILVKWLPQNDLLGHPMTRAFITHAGSHGVYESICNGVPMVMMPLFGDQMDNAKRMETKGAGVTLNVLEMTSEDLENALKAVINDKSYKENIMRLSSLHKDRPVEPLDLAVFWVEFVMRHKGAPHLRPAAHDLTWYQYHSLDVIGFLLAVVLTVAFITFKCCAYGYRKCLGKKGRVKKAHKSKTH", "values": [{"measurement": "Km", "setting": "[4]", "result": 495, "unit": "µM"}, {"measurement": "Vmax", "setting": "[4]", "result": 0.00941, "unit": "µmol/min/mg"}]}
{"molecule": "human UGT1A9*3 (Homo sapiens; M33T) (protein) GKLLVVPTDGSHWFTMRSVVEKLILRGHEVVVVMPEVSWQLGRSLNCTVKTYSTSYTLEDLDREFKAFAHAQWKAQVRSIYSLLMGSYNDIFDLFFSNCRSLFKDKKLVEYLKESSFDAVFLDPFDNCGLIVAKYFSLPSVVFARGILCHYLEEGAQCPAPLSYVPRILLGFSDAMTFKERVRNHIMHLEEHLLCHRFFKNALEIASEILQTPVTEYDLYSHTSIWLLRTDFVLDYPKPVMPNMIFIGGINCHQGKPLPMEFEAYINASGEHGIVVFSLGSMVSEIPEKKAMAIADALGKIPQTVLWRYTGTRPSNLANNTILVKWLPQNDLLGHPMTRAFITHAGSHGVYESICNGVPMVMMPLFGDQMDNAKRMETKGAGVTLNVLEMTSEDLENALKAVINDKSYKENIMRLSSLHKDRPVEPLDLAVFWVEFVMRHKGAPHLRPAAHDLTWYQYHSLDVIGFLLAVVLTVAFITFKCCAYGYRKCLGKKGRVKKAHKSKTH", "values": [{"measurement": "Km", "setting": "[4]", "result": 3225, "unit": "µM"}, {"measurement": "Vmax", "setting": "[4]", "result": 0.0141, "unit": "µmol/min/mg"}]}
